Measurements: US20250179160A1 (OMEROS, published 2025)
Blank lines part the entries; values can stand above or below the binder they belong to.

Key:
[1] = target: T1, recombinant human mature Factor D-His (human, UniProt P00746 26-253); test: ELISA: antibody titrated from 3 ug/ml on 1 ug/ml plate-immobilized His-tagged Factor D; labeled goat anti-mouse IgG Fc; OD450
T1 construct: also called recombinant human mature CFD-His; not shown: His tag

[2] = target: T2, recombinant human Pro-Factor D-His (human, UniProt P00746 20-253); test: as above
T2 construct: also called recombinant human Pro-CFD-His; not shown: His tag

[3] = target: T3, recombinant human Pro-Factor D (human, UniProt P00746 20-253); test: sandwich ELISA: coat 21H1 (human IgG4) 1 ug/ml, recombinant human pro-Factor D spiked into diluent and titrated, detection biotin goat polyclonal BAF1824 and HRP-streptavidin; OD450
T3 construct: also used for the endogenous pro-Factor D detected in 3MC patient serum; also called pro CFD; hPro-CFD
Protocol: Controls of no additional Factor D in sera were treated similarly (unspiked). Assay wells were incubated for 1 hour at room temperature then washed three times with PBST. […] After incubation and washing, HRP-tagged Streptavidin was added, incubated, and washed, followed by TMB substrate.

[4] = target: T4, recombinant human mature Factor D (human, UniProt P00746 26-253); test: ELISA: antibody titrated 3-fold from 3 ug/ml on plate coated with 1 ug/ml recombinant human mature Factor D; HRP anti-mouse, rat or human secondary; OD450
T4 construct: also called mature CFD; hCFD

[5] = target: T3, recombinant human Pro-Factor D; test: ELISA: antibody titrated 3-fold from 3 ug/ml on plate coated with 1 ug/ml recombinant human pro-Factor D; HRP anti-mouse, rat or human secondary; OD450

EC50 (read off the curve) [1]: ~0.04 µg/mL
EC50 (read off the curve) [2]: ~0.02 µg/mL
B1: 12H10, recombinant purified, mouse IgG2a Fc (antibody)
heavy: EVQLVESGGGLVQPKGSLKLSCAASGFSFNTYAMNWVRQAPGKGLEWVARIRSKSNNYATYYADSVKDRFTISRDDSESMLYLQMNNLKTEDTAMYYCVRHGYYWYFDVWGTGTTVTVSSAKTTAPSVYPLAPVCGDTTGSSVTLGCLVKGYFPEPVTLTWNSGSLSSGVHTFPAVLQSDLYTLSSSVTVTSSTWPSQSITCNVAHPASSTKVDKKIEPRGPTIKPCPPCKCPAPNLLGGPSVFIFPPKIKDVLMISLSPIVTCVVVDVSEDDPDVQISWFVNNVEVHTAQTQTHREDYNSTLRVVSALPIQHQDWMSGKEFKCKVNNKDLPAPIERTISKPKGSVRAPQVYVLPPPEEEMTKKQVTLTCMVTDFMPEDIYVEWTNNGKTELNYKNTEPVLDSDGSYFMYSKLRVEKKNWVERNSYSCSVVHEGLHNHHTTKSFSRTPGK
light: DVLMTQTPLSLPVSLGDQASISCRSSQSIVHSDGNTYLEWYLQKPGQSPKLLIYRVSNRFSGVPDRFSGSGSGTDFTLKISRVEAEDLGVYYCFQGSHVPYTFGGGTKLEIKRADAAPTVSIFPPSSEQLTSGGASVVCFLNNFYPKDINVKWKIDGSERQNGVLNSWTDQDSKDSTYSMSSTLTLTKDEYERHNSYTCEATHKTSTSPIVKSFNRNEC
notes: Mouse IgG2a and mouse kappa constant regions

EC50 (read off the curve) [3]: ~0.004 µg/mL
binding result [4]: no binding (tested: 3 ug/ml)
EC50 (read off the curve) [5]: ~0.02 µg/mL
B2: 21H1, purified recombinant, human IgG4 Fc (antibody, V domains shown)
VH: DVQLQESGPGLVKPSQSLSLTCTVTGYSITSDYAWNWIRQFPGNKLEWMGYISYSGSTGYSPSLKSRISITRDTSKNQFFLHLNSVTTGDTATYYCARNGAMDYWGQGISVTVSS
VL: DIVLTQSPASLAVSLGQRATISCKASQSVDYDGDSYMNWYQQKPGQPPKLLIYDASTLESGIPARFSGSGSGTDFTLNIHPVEEEDAATYYCQQNYEAPWTFGGGTKLEIKR
notes: Mouse variable regions on human IgG4 (S228P) and human kappa constant regions; also called mAb 21H1; anti-pro Factor D-specific antibody 21H1
